Results from patent publication US20030096272A1, “Genes regulated by peroxisome proliferator-activated receptor gamma agonist” (Incyte Genomics, Inc., priority 2001, published 2003).

Tests used:
[1] = test system: adipocytes obtained from obese donors; assay: microarray differential expression in PPARγ agonist-treated adipocytes, obese donor; type: cell-based, human
From the text: (§1) Incyte clones represent template sequences derived from the LIFESEQ GOLD assembled human sequence database (Incyte Genomics). In cases where more than one clone was available for a particular template, the 5′-most clone in the template was used on the microarray. The HUMAN GENOME GEM series 1-5 microarrays (Incyte Genomics) contain 45,320 array elements which represent 22,632 annotated clusters and 22,688 unannotated clusters. For the UNIGEM series microarrays (Incyte Genomics), Incyte clones were mapped to non-redundant Unigene clusters (Unigene database (build 46), NCBI; Shuler (1997) J Mol Med 75:694-698), and the 5′ clone with the strongest BLAST alignment (at least 90% identity and 100 bp overlap) was chosen, verified, and used in the construction of the microarray. The UNIGEM V 2.0 microarray (Incyte Genomics) contains 8,502 array elements which represent 8,372 annotated genes and 130 unannotated clusters.
(§2) To construct microarrays, cDNAs were amplified from bacterial cells using primers complementary to vector sequences flanking the cDNA insert. Thirty cycles of PCR increased the initial quantity of cDNAs from 1-2 ng to a final quantity greater than 5 μg. Amplified cDNAs were then purified using SEPHACRYL-400 columns (APB). Purified cDNAs were immobilized on polymer-coated glass slides. Glass microscope slides (Coming, Corning N.Y.) were cleaned by ultrasound in 0.1% SDS and acetone, with extensive distilled water washes between and after treatments. Glass slides were etched in 4% hydrofluoric acid (VWR Scientific Products, West Chester Pa.), washed thoroughly in distilled water, and coated with 0.05% aminopropyl silane (Sigma-Aldrich) in 95% ethanol. Coated slides were cured in a 110° C. oven. cDNAs were applied to the coated glass substrate using a procedure described in U.S. Pat. No. 5,807,522. One microliter of the cDNA at an average concentration of 100 ng/ul was loaded into the open capillary printing element by a high-speed robotic apparatus which then deposited about 5 nl of cDNA per slide.
(§3) Microarrays were UV-crosslinked using a STRATALINKER UV-crosslinker (Stratagene), and then washed at room temperature once in 0.2% SDS and three times in distilled water. Non-specific binding sites were blocked by incubation of microarrays in 0.2% casein in phosphate buffered saline (Tropix, Bedford Mass.) for 30 minutes at 60° C. followed by washes in 0.2% SDS and distilled water as before.
(§4) Primary cultures of preadipocytes were obtained from subcutaneous fat obtained from a person with a body mass index (BMI; kg/m^2) of 23.59 and from a person with a BMI of 32.47. Individuals with a BMI between 18.5 and 24.9 are classified as ‘healthy’ or normal, whereas individuals with a BMI between 30.0 and 39.9 are classified as obese. Preadipocytes were cultured in F-10 medium with 10% fetal bovine serum. Confluent cells were either treated with 1 μM rosiglitazone (BRL49653), 0.2 mM IBMX, and 100 nM human insulin for 3 days; or remained untreated. Thereafter, the cells were cultured in F-10 medium with 3% fetal bovine serum and 100 nM human insulin. Differentiated adipocytes were compared to untreated preadipocytes maintained in culture in the absence of inducing agents. Between 80% and 90% of the preadipocytes observed under a phase contrast microscope had differentiated to adipocytes by day 15. Cells were harvested at 1, 2, 8, and 15 days post treatment.
(§5) Cells were harvested and lysed in 1 ml of TRIZOL reagent (5×10^6 cells/ml; Invitrogen). […]

[2] = test system: adipocytes obtained from normal donors; assay: microarray differential expression in PPARγ agonist-treated adipocytes, normal donor; type: cell-based, human
From the text: as §1, §2, §3, §4, §5

Molecule | regulation in response to PPARγ agonist (in words) ([1]; adipocytes from obese donors) | regulation in response to PPARγ agonist (in words) ([2]; adipocytes from normal donors) | differential expression, Obese 1 d ([1]; obese-donor adipocytes treated with PPARγ agonist (1 μM rosiglitazone, 0.2 mM IBMX, 100 nM insulin), 1 day, relative to untreated time-matched controls, negative = downregulation) | differential expression, Obese 2 d ([1]; obese-donor adipocytes treated with PPARγ agonist (1 μM rosiglitazone, 0.2 mM IBMX, 100 nM insulin), 2 days, relative to untreated time-matched controls, negative = downregulation) | differential expression, Obese 8 d ([1]; obese-donor adipocytes treated with PPARγ agonist (1 μM rosiglitazone, 0.2 mM IBMX, 100 nM insulin), 8 days, relative to untreated time-matched controls, negative = downregulation) | differential expression, Obese mean ([1]; obese-donor adipocytes treated with PPARγ agonist, averaged over 1, 2, 8 and 15 days) | differential expression, Normal 1 d ([2]; normal-donor adipocytes treated with PPARγ agonist (1 μM rosiglitazone, 0.2 mM IBMX, 100 nM insulin), 1 day, relative to untreated time-matched controls, negative = downregulation) | differential expression, Normal 2 d ([2]; normal-donor adipocytes treated with PPARγ agonist (1 μM rosiglitazone, 0.2 mM IBMX, 100 nM insulin), 2 days, relative to untreated time-matched controls, negative = downregulation) | differential expression, Normal 8 d ([2]; normal-donor adipocytes treated with PPARγ agonist (1 μM rosiglitazone, 0.2 mM IBMX, 100 nM insulin), 8 days, relative to untreated time-matched controls, negative = downregulation) | differential expression, Normal mean ([2]; normal-donor adipocytes treated with PPARγ agonist, averaged over 1, 2, 8 and 15 days)
SEQ ID NO:29: cDNA, template 235636.1, represented by clone 3075694; integrin binding protein Del-1 | downregulated | unchanged | – | – | – | – | – | – | – | –
5425777 (nucleic acid, listed as Homo sapiens, Incyte ID No 5425777CA2) DNA: CCCAGACACAAGTCTTCACTCCTTCCTGCGAGCCCTGAGGAAGCCTTCTTTCCCCAGACATGGCCAACAAGGGTCCTTCCTATGGCATGAGCCGCGAAGTGCAGTCCAAAATCGAGAAGAAGTATGACGAGGAGCTGGAGGAGCGGCTGGTGGAGTGGATCATAGTGCAGTGTGGCCCTGATGTGGGCCGCCCAGACCGTGGGCGCTTGGGCTTCCAGGTCTGGCTGAAGAATGGCGTGATTCTGAGCAAGCTGGTGAACAGCCTGTACCCTGATGGCTCCAAGCCGGTGAAGGTGCCCGAGAACCCACCCTCCATGGTCTTCAAGCAGATGGAGCAGGTGGCTCAGTTCCTGAAGGCGGCTGAGGACTATGGGGTCATCAAGACTGACATGTTCCAGACTGTTGACCTCTTTGAAGGCAAAGACATGGCAGCAGTGCAGAGGACCCTGATGGCTTTGGGCAGCTTGGCAGTGACCAAGAATGATGGGCACTACCGTGGAGATCCCAACTGGTTTATGAAGAAAGCGCAGGAGCATAAGAGGGAATTCACAGAGAGCCAGCTGCAGGAGGGAAAGCATGTCATTGGCCTTCAGATGGGCAGCAACAGAGGGGCCTCCCAGGCCGGCATGACAGGCTACGGACGACCTCGGCAGATCATCAGTTAGAGCGGAGAGGGCTAGCCCTGAGCCCGGCCCTCCCCCAGCTCCTTGGCTGCAGCCATCCCGCTTAGCCTGCCTCACCCACACCCGTGTGGTACCTTCAGCCCTGGCCAAGCTTTGAGGCTCTGTCACTGAGCAATGGTAACTGCACCTGGGCAGCTCCTCCCTGTGCCCCCAGCCTCAGCCCAACTTCTTACCCGAAAGCATCACTGCCTTGGGCCCCTCCCTCCCGGCTGCCCCCATCACCTCTACTGTCTCCTCCCTGGGCTAAGCAGGGGAGAAGCGGGCTGGGGGTAGCCTGGATGTGGGCCAAGTCCACTGTCCTCCTTGGCGGCAAAAGCCCATTGAAGAAGAACCAGCCCAGCCTGCCCCCTATCTTGTCCTGGAATATTTTTGGGGTTGGAACTCAAAAAAAAAAAAGGGGGGGCCCGCGCGTTTATTGTGCCTTCTTCAGACCCCGGGAATTAATTCCCGACCGGATACCTTGGCAGCTATATTGAATCTTGCAACCGTTTAACTTACCATTTTTTGCCTCAGCCCGGTGTTTCTGGCTTGTTTGGGAAGCCGGTTGGTCCTCTTTGGTGTTCCGTTCCACGCGAAAAGGTTTAGACAGACTTCCGGAACACTTCCGGGTTCCCCAGACACCAGCTTCTTTGTTAGGGTCCCCACCGGTCATTGTCGCCCGGATCGCTTGGTCCACCGGCGCGGTTAACGTTTTTTCAGCCGGGCGATGTCA | – | – | −2.55 log base 2 | −3.20 log base 2 | −2.02 log base 2 | −2.59 log base 2 | −2.16 log base 2 | −3.01 log base 2 | −0.23 log base 2 | −1.80 log base 2
